These are literature values, as cited in PMC4376447.

The series has as its target S100A10 (Homo sapiens) (UniProt P60903). Nature of the series: ITC.

pKd: −log10 of the molar value.

Chain of UniProt P60903 (P60903 whole entry): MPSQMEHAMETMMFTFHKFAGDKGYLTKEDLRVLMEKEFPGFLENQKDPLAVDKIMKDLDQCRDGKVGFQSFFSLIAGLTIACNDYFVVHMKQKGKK

The term pKd denotes −log10 of the Kd, conventionally taken in molar units. As to “Annexin A2 N-terminus (from UniProt P07355)”, the pKd is 6.30.
